The values below come from patent US20220153790A1 (TECHNISCHE UNIVERSIT T M NCHEN, published 2022).

The target in assay [1] is T1, unglycosylated, monobiotinylated extracellular domain of human CD98hc produced in E. coli (human, UniProt P08195 111-529, single biotin on the N-terminal biotin acceptor peptide (BAP)).
T1 construct: also called hCD98hcED; CD98hcED; not shown: N-terminal biotin acceptor peptide (BAP) from pASK-IBA5(+)-BAP-hCD98hcED
T1 sequence: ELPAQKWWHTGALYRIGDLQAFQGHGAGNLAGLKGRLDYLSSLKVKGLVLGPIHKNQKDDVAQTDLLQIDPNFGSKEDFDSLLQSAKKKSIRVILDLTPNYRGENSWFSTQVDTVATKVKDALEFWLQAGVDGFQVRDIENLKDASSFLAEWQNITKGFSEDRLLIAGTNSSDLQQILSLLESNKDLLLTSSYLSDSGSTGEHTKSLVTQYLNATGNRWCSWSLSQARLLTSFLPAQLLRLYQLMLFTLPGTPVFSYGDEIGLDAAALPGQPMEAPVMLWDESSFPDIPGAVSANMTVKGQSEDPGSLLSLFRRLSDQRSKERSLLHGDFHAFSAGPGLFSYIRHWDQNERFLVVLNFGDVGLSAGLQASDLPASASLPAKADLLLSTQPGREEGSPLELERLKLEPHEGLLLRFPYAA
Test: not given

Assay [2] concerns the target T2, fully glycosylated, monobiotinylated extracellular domain of human CD98hc produced in HEK 293E cells (human, UniProt P08195 111-529, N-linked glycosylation at Asn264, 280, 323 and 405 (UniProt P08195-2); single biotin on the N-terminal BAP).
T2 construct: also called hCD98hcEDg; CD98hcEDg; not shown: N-terminal His6 tag and biotin acceptor peptide (BAP) from pDSG-BM-His6-BAP-hCD98hcEDg
T2 sequence: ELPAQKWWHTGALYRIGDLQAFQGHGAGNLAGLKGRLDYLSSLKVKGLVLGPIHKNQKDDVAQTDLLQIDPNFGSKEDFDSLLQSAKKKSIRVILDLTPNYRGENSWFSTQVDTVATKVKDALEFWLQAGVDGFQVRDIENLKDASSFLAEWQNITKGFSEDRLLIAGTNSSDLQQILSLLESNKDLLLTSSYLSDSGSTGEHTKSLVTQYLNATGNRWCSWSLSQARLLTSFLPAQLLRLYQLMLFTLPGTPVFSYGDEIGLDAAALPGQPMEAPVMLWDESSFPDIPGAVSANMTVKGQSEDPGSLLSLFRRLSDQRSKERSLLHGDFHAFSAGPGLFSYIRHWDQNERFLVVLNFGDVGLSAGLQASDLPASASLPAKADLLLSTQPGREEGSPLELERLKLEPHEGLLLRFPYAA
In words: flow cytometry, soluble hCD98hcEDg at 10-fold molar excess as competitor of cell binding. How it is done:
Cells growing in suspension (Ramos, Raji and SU-DHL-4) were directly washed with PBS (w/o Ca²⁺ and Mg²⁺). For each measurement, 250,000 viable cells were resuspended in 250 μl FACS buffer (PBS+10% (v/v) FBS) containing 1 μM D11vs-PAS200-Cy5.5 (cf. Supplementary information) and incubated for 1 h at 4° C. Competition experiments were performed by adding a 10-fold molar concentration of either unlabeled D11vs-PAS200 or the soluble glycosylated hCD98hcED. After incubation, cells were washed three times in PBS and finally resuspended in 250 μl FACS buffer. Flow cytofluorometric experiments were performed on a FACSAria Ilu instrument using an excitation wavelength of 650 nm and an emission band-path filter of 780/60 nm.
As expected, no fluorescence staining for any of the tested cell lines was detected when using the Cy5.5-labeled PASylated wtLcn2.
Background: In flow cytometry, cells or beads pass a laser one at a time.

B1: SEQ ID NO 4 (designed binder)
chain: QDSTSDLIPAPPLSKVPLQQNFQDNQFHGKWYVVGRAGNTGLREDKDPGKMFATIYELKEDKSYNVTYVWSGQKKCMYSIVTFVPGSQPGEFTLGNIKSAPGRTSWLVRVVSTNYNQHALVFFKSVTQNREGFAITLYGRTKELTSELKENFIRFSKSLGLPENHIVFPVPIDQCIDG
For B1, the Kd (in general, the concentration at which binding is half-saturated) in assay [1] is not above 5 nM.

B2: D11vs-PAS200-Cy5.5 (designed binder)
chain: QDSTSDLIPAPPLSKVPLQQNFQDNQFHGKWYVVGRAGNTGLREDKDPGKMFATIYELKEDKSYNVTYVWSGQKKCMYSIVTFVPGSQPGEFTLGNIKSAPGRTSWLVRVVSTNYNQHAMVFFKSVTQNREGFAITLYGRTKELTSELKENFIRFSKSLGLPENHIVFPVPIDQCIDG
modifications: Sulfo-Cyanine5.5 coupled by maleimide chemistry to the engineered C-terminal Cys
notes: also called Cy5.5 labeled PASylated D11vs; Cy5.5-labeled D11vs-PAS200; not shown: C-terminal PAS200 polypeptide (200 Pro, Ala and Ser residues) with an engineered Cys at its end
With B2, in assay [2], the binding result is on record as “binds”.
